Earlier results, collected in article PMC5705969.
pKd: −log10 of the molar value.

Key:
Kv1.3 = Kv1.3 (UniProt P22001)
Kv1.2 = Kv1.2 (UniProt P16389)
Kv1.1 = Kv1.1 (UniProt Q09470)
Chain of UniProt Q09470 (Q09470 whole entry): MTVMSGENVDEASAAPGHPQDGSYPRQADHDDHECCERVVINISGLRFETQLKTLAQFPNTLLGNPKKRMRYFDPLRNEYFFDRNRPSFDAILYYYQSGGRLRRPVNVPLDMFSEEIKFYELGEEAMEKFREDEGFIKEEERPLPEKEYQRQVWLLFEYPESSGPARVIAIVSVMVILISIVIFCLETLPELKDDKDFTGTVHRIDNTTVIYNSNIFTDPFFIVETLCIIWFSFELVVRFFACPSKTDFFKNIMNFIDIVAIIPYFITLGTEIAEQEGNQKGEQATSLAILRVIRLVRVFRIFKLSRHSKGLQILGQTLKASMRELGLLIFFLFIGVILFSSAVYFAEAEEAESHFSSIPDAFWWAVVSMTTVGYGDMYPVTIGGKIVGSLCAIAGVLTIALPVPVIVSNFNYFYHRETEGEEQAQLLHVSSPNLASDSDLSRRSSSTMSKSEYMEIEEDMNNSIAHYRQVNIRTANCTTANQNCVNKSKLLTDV

Chain of UniProt P16389 (P16389 whole entry): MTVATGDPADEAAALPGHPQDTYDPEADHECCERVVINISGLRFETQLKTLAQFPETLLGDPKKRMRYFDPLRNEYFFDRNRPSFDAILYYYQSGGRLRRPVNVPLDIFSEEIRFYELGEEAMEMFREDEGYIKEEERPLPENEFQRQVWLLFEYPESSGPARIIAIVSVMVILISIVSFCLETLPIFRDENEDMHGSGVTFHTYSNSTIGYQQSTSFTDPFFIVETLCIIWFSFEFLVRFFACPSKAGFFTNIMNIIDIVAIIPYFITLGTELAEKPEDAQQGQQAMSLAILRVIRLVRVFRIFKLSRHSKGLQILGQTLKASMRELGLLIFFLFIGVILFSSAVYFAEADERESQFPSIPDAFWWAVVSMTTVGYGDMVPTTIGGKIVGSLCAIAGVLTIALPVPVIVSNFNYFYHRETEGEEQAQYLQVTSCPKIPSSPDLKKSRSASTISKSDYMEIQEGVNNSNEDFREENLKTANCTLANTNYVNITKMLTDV
Chain of UniProt P22001 (P22001 whole entry): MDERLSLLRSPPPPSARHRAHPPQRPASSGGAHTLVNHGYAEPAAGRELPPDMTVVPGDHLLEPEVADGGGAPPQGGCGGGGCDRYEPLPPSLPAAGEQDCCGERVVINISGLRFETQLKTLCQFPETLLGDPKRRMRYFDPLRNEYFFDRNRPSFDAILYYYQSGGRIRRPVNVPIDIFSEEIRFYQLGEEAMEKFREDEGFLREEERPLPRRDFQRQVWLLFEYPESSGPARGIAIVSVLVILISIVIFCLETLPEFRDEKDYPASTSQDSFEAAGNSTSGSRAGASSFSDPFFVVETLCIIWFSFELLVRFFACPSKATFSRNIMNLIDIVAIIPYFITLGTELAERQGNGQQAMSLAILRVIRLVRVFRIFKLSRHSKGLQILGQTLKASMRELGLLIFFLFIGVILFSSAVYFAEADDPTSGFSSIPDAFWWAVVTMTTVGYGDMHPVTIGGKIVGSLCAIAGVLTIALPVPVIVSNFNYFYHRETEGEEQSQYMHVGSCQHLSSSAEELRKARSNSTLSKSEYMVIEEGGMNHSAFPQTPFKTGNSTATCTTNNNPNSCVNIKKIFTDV

For AgTx-2 (from UniProt P46111), the pKd (Kv1.3) is given as 10.30, the pKd (Kv1.2) is given as 8.47 and the pKd (Kv1.1) is given as 9.89.
